Test results reported in patent US20140056907A1 (Regeneron, published 2014).
Positions count from the first letter of the chain named. Names may count otherwise. One block for each binder: values may come before it.

Tests used:
human ASIC1 [1] = target: T1, human ASIC1 (human, UniProt P78348 1-528); experiment: cell-based or functional assay
T1 sequence: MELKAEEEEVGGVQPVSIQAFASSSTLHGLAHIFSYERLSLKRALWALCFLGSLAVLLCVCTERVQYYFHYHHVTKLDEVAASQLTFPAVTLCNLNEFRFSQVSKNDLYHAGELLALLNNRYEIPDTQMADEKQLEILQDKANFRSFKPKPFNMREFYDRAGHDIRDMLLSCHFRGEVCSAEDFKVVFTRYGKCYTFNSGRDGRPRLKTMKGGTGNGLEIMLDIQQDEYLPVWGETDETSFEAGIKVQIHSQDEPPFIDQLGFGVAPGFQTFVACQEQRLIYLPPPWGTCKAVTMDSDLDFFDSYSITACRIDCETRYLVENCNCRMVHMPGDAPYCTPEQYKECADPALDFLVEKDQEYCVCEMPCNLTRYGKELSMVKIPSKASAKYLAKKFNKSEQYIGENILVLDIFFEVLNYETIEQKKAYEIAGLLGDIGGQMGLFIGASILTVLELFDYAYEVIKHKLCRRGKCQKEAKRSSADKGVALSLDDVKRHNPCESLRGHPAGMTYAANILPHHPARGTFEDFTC

mouse ASIC1a [2] = target: T2, mouse ASIC1a (mouse, UniProt Q6NXK8 1-526); experiment: cell-based or functional assay
T2 sequence (looked up): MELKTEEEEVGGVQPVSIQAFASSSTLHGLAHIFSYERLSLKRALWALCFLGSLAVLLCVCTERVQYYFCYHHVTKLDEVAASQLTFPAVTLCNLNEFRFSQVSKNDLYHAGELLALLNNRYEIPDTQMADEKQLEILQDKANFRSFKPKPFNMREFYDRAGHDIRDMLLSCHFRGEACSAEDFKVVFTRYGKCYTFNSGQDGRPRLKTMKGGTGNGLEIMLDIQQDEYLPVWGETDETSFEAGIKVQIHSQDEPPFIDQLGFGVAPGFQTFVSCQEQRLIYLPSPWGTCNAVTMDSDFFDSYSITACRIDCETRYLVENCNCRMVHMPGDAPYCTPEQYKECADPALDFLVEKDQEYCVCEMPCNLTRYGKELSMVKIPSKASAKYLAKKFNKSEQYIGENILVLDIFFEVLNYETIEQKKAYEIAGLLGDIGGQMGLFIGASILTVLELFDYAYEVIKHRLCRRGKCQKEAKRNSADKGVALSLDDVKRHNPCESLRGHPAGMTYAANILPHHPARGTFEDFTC

human ASIC1 [3] = target: T1, human ASIC1; experiment: cell-based or functional assay; remark: listed apart in the source
rat ASIC1 = target: T3, rat ASIC1 (rat, UniProt P55926 1-526); experiment: FACS, undifferentiated ND7 cells
T3 construct: whole, on cells; ND7 is a fusion line of mouse neuroblastoma and rat dorsal root ganglia; also called rat ASIC1a
T3 sequence (looked up): T2 sequence (looked up) with N476S
Text: (§1) To further characterize anti-ASIC1 antibodies, their ability to bind either (a) a mouse fibroblast 3T3 cell line stably transfected to overexpress full length human ASIC1 (3T3/hASIC1; amino acids 1-528 of NCBI accession number NP_{—}001086.2 [SEQ ID NO:401]), (b) a 3T3 cell line stably transfected to over express full length mouse ASIC1a (3T3/mASIC1a; amino acids 1-526 of NCBI accession number NP_{—}033727), or (c) a ND7 cell line (ECACC, #92090903) that is a fusion cell line of mouse neuroblastoma and rat dorsal root ganglia that endogenously expresses rat ASIC1, was determined using flow cytometry (FACS). ND7 cells were differentiated by replacing the culture media with low-serum media (0.5% FBS) containing 1 mM dibutyryl-cAMP (Cat. No. sc-201567A, Santa Cruz Biotechnology, Inc., Santa Cruz, Calif.). FACS binding was tested for some antibodies on both undifferentiated ND7 cells and differentiated ND7 cells.
(§2) To perform the FACS binding experiments, adherent cells were collected using 1 mM EDTA in PBS, then washed, and re-suspended in cold PBS containing 5% FBS. For each binding experiment, each anti-ASIC1 antibody (at final concentrations of 10 nM of purified antibodies or 3.3 nM for antibody supernatants for binding to 3T3/hASIC1 cells and 5 nM for binding to 3T3/mASIC1a or ND7 cells) was added to 250,000 cells in 500 μL of PBS with 5% FBS. […] After incubating for 20 minutes on ice, the cells were washed and resuspended in PBS containing 5% FBS, then sorted and analyzed on a flow cytometer (FACSCalibur, BD Biosciences, San Jose, Calif.) to determine relative binding by the candidate antibodies to the tested cell lines. […] Percentage of ASIC1 signal over secondary antibody alone was calculated using FlowJo software (Tree Star, Ashland, Oreg.).

human ASIC1 [4] = target: T1, human ASIC1; experiment: FACS titration, 3T3/hASIC1 cells
Procedure: To perform the FACS binding experiments, adherent cells were collected using 1 mM EDTA in PBS, then washed, and re-suspended in cold PBS containing 5% FBS. For each binding experiment, each anti-ASIC1 antibody ([…] or ND7 cells) was added to 250,000 cells in 500 μL of PBS with 5% FBS. After incubation for 20 minutes at room temperature, a secondary antibody which recognizes human Fc (Cat. No. 109-136-098, Jackson ImmunoResearch Laboratories, Inc., West Grove, Pa.) or mouse Fc (Cat. No. 550826, BD Biosciences, San Jose, Calif.) and is conjugated to allophycocyanin, was then added to the cell mixture at a final concentration of 13.3 nM. After incubating for 20 minutes on ice, the cells were washed and resuspended in PBS containing 5% FBS, then sorted and analyzed on a flow cytometer (FACSCalibur, BD Biosciences, San Jose, Calif.) to determine relative binding by the candidate antibodies to the tested cell lines. Histograms of cells stained with anti-ASIC1 antibodies were compared with those of cells stained with secondary antibody alone. Percentage of ASIC1 signal over secondary antibody alone was calculated using FlowJo software (Tree Star, Ashland, Oreg.).

mouse ASIC1a [5] = target: T2, mouse ASIC1a; experiment: FACS, 3T3/mASIC1a cells
Text: as §1
To perform the FACS binding experiments, adherent cells were collected using 1 mM EDTA in PBS, then washed, and re-suspended in cold PBS containing 5% FBS. For each binding experiment, each anti-ASIC1 antibody (at final concentrations of 10 nM of purified antibodies or 3.3 nM for antibody supernatants for binding to 3T3/hASIC1 cells and 5 nM for binding to 3T3/mASIC1a or ND7 cells) was added to 250,000 cells in 500 μL of PBS with 5% FBS. After incubation for 20 minutes at room temperature, a secondary antibody which recognizes human Fc (Cat. No. 109-136-098, Jackson ImmunoResearch Laboratories, Inc., West Grove, Pa.) or mouse Fc (Cat. No. 550826, BD Biosciences, San Jose, Calif.) and is conjugated to allophycocyanin, was then added to the cell mixture at a final concentration of 13.3 nM. After incubating for 20 minutes on ice, the cells were washed and resuspended in PBS containing 5% FBS, then sorted and analyzed on a flow cytometer (FACSCalibur, BD Biosciences, San Jose, Calif.) to determine relative binding by the candidate antibodies to the tested cell lines. Histograms of cells stained with anti-ASIC1 antibodies were compared with those of cells stained with secondary antibody alone. Percentage of ASIC1 signal over secondary antibody alone was calculated using FlowJo software (Tree Star, Ashland, Oreg.).

human ASIC1 [6] = target: T1, human ASIC1; experiment: FACS, 3T3/hASIC1 cells
Text: as §1, with “FACS binding was tested for some antibodies on both undifferentiated ND7 cells and differentiated ND7 cells.” left out
as §2, with “containing” for “containing 5% FBS. For each binding experiment, each anti-ASIC1 antibody (at final concentrations of 10 nM of purified antibodies or 3.3 nM for antibody supernatants for binding to 3T3/hASIC1 cells and 5 nM for binding to 3T3/mASIC1a or ND7 cells) was added to 250,000 cells in 500 μL of PBS with”

human ASIC1 [7] = target: T1, human ASIC1; experiment: cell-based or functional assay; remark: listed apart in the source

binding result (human ASIC1 [6]): no binding | Current inhibition (%) at 100 nM antibody, Q-Patch, pH 6.0 (human ASIC1 [3]): 25%
B3: H4H6381P (antibody, human IgG4, V domains shown)
VH: QVQLVQSGAEVKKPGASVKVSCKASGYTFTSYGISWVRQAPGQGLEWMGWISAYNGNTNYAQKLQGRVTMTTDTSTSTAYMELRSLRSDDTAVYYCARDGSYSWFDPWGQGTLVTVSS
VL: not shown

binding result (human ASIC1 [6]): no binding | Current inhibition (%) at 100 nM antibody, Q-Patch, pH 6.0 (human ASIC1 [3]): 29%
B5: H4H6362P (antibody, V domains shown)
VH: QVQLVESGGGVVQPGRSLRLSCEASGFTFGSYGMHWVRQAPGKGLEWMAVISYDGNSRYSADSVKGRFTISRDNSKNTLYLQMNSLRAEDTALYYCAKENHIAARRPGGLDVWGQGTTVTVSS
VL: DIQMTQSPSSLSASVGDRVTITCRASQGISIYLAWYQQKPGKVPKLLIYAASSLQSGVPSRFSGSGSGTDFTLTISSLQPEDVATYFCQNYNIAPWTLGQGTKVEIK

Further lines, the binder ahead of its results:

B1: H2M7103N (antibody, V domains shown)
VH: EVQLVESGGGLVQPGGSLKLSCAASGFTFSSFWMSWVRQAPGKGLEWVANIKQNGSETYYVDSVKGRFTISRDNTKNSLYLQMNSLRAEDTAIYYCARGGRIQLWSSWFDPWGQGTLVTVSS
VL: DIQMTQSPSSLSASVGDRVTITCRASQSIKNYLNWYQQKSGKAPKLLIYAASSLQSGVPSRVSGSGSGTDFTLTISSLHPEDFAAYYCQQSFSAPLTFGGGTKVEIK
notes: Chimeric: human variable, mouse constant domains; Fc isotype not spelled out; also called H2bM7103N
apparent IC50, human ASIC1 current, Q-Patch (human ASIC1 [1]): ≤ 10 nM | apparent IC50, mouse ASIC1 current, Q-Patch (mouse ASIC1a [2]): < 25 nM | Current inhibition (%) at 100 nM antibody, Q-Patch, pH 6.0 (human ASIC1 [3]): 92% | binding result (rat ASIC1): no binding (tested: 5 nM; gated lower than 1%) | EC50 (human ASIC1 [4]): 1.7 nM

B2: H3M6720N (antibody, V domains shown)
VH: B1 VH
VL: AIQMTQSPSSLSASVGDRVTITCRASQGISNDLGWYQQKPGKAPKLLIYGASSLQTGVPSRFSGSGSGTDFTLTISSLQPEDFATYYCLQDFNYPYTFGQGTKLEIK
notes: Chimeric: human variable, mouse constant domains; H3M prefix marks the Fc, isotype not spelled out
apparent IC50, human ASIC1 current, Q-Patch (human ASIC1 [1]): ≤ 10 nM | apparent IC50, mouse ASIC1 current, Q-Patch (mouse ASIC1a [2]): < 25 nM | Current inhibition (%) at 100 nM antibody, Q-Patch, pH 6.0 (human ASIC1 [3]): 82% | binding result (mouse ASIC1a [5]): no binding (tested: 5 nM; gated lower than 1%) | binding result (rat ASIC1): no binding (tested: 5 nM; gated lower than 1%) | EC50 (human ASIC1 [4]): 1.1 nM

B4: H3M6721N (antibody, V domains shown)
VH: EVQLLASGGGLVQPGGSLRLSCAASGFTFSSFAMSWVRQAPGKGLEWVSGISGSGVSTYYADSVKGRFTISRDNSKNTLYLQMNSLRAEDTAAYYCAKEAYKWQPWGQGIRVTVSS
VL: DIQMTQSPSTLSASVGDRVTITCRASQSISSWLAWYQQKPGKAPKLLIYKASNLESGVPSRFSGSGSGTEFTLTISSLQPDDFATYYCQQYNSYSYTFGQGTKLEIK
notes: as for B2
apparent IC50, human ASIC1 current, Q-Patch (human ASIC1 [1]): ≤ 10 nM | apparent IC50, mouse ASIC1 current, Q-Patch (mouse ASIC1a [2]): < 25 nM | FLIPR Dose Curve, pH 5.0 % Block (human ASIC1 [7]): 25% | FLIPR Dose Curve, pH 5.5 % Block (human ASIC1 [7]): 44% | FLIPR Dose Curve, pH 5.5 IC50 (human ASIC1 [7]): 0.3 nM | Current inhibition (%) at 100 nM antibody, Q-Patch, pH 6.0 (human ASIC1 [3]): 100% | binding result (rat ASIC1): no binding (tested: 5 nM; gated lower than 1%) | EC50 (human ASIC1 [4]): 0.085 nM
